Biological target: T1, F/IX delta 111-140 (human; human adenovirus type 5, UniProt P03372 553-595)
T1 construct: domain: F domain; N-terminally F-tagged pIX truncated after residue 110 (lacks half of the leucine-repeat)
T1 sequence: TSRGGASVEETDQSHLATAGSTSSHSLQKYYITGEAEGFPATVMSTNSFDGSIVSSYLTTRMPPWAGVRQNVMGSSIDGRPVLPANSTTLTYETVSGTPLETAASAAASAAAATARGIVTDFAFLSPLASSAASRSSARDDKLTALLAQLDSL
Assay: co-immunoprecipitation with anti-F antibody from A549 cell extracts, Western blot with anti-pIX

B1: non-tagged wild type adenovirus type 5 protein IX (other)
chain: MSTNSFDGSIVSSYLTTRMPPWAGVRQNVMGSSIDGRPVLPANSTTLTYETVSGTPLETAASAAASAAAATARGIVTDFAFLSPLASSAASRSSARDDKLTALLAQLDSLTRELNVVSQQLLDLRQQVSALKASSPPNAV
notes: tested in cell extracts; also called wt pIX; untagged wt pIX
- binding result: no binding

— patent publication US20030108521A1 (published 2003)
